The values that follow come from the nanobody polyreactivity screen of Harvey et al. (2022).

This series can be described thus: yeast display, Sf9 membrane polyspecificity reagent, FACS + sequencing; frameworks hold sequencing errors. In short, it runs like this:
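In a synthetic yeast display library (Saccharomyces cerevisiae BJ5465), nanobody expression was induced with galactose for 36–48 hours. FACS gates were set low and high (top ~1%) using anti-HA fluorescence for expression and streptavidin fluorescence for binding of the Sf9 membrane reagent. Each polyreactivity label is drawn from the gate of origin.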
In the case of “QVQLVESGGGLVQARGSLRLSCAASGTIFSSYAMGWYRQAPGKERELVAAIRWTGGSTYYADSVKGRFTISRDNAMNTVFLEMNSLKPEDTAVYFCTAEYWIDWGYDYWGQGTQVTVSS”, the “polyreactivity (PSR sort gate)” value was “low polyreactivity”.

Turning to “QVQLVESGGGLVQARGSLRLSCAATGLTFYSNAMGWSRQAPGKERELVARISTGGSTYADSVKGRFTISRDNAKNTVYLQMNSLKPEDTAVYYCAKLPPRGIDDEYWGQGTQVTVSS”, the “polyreactivity (PSR sort gate)” value was “low polyreactivity”.

For “QVQLVESGGGLVQARGSLRLSFAASGGIFYSYAMGRYRQAPGKEREFVAAIRRSGGRTYYADSVKGRFTISRDNAKNTVYLQMNSLKPEDTAVYYCAADGWYSGGHDYWGQGTQVTVSS”, the “polyreactivity (PSR sort gate)” value is “high polyreactivity”.

On to “QVQLVESGGGLVQARGSLRLSWAASGIIFALYAMGWSRQAPGKERELVAAISSDGITKYADSVKGRFTISRDNAKNPDYLQMNSLKPEDTAVYYCAADGYPGDYDYWGQGTQVTVSS”, for which the “polyreactivity (PSR sort gate)” value is “low polyreactivity”.

As for “QVQLVESGGGLVQARVSLRLSCAASGITFRYYAMGWYRQAPGKERELVAAITRGGGSTYYADSVKGRFTISRDNAKNTVYLQMNSLKPEDTAVYYCAAAGSRYAWGYGYWGQGTQVTVSS”, the “polyreactivity (PSR sort gate)” value is recorded as “high polyreactivity”.

For the sequence “QVQLVESGGGLVQAVGRLRLSCAASGITLSLYAMGWYRQATGKETELVAAISRGGGRTYYADSVKGRFTISRDNAKNTVYLQMNSLKPEDTAVYYCNKGRNPGPAYFASVDYWGQGTQVTVSS”, the “polyreactivity (PSR sort gate)” value was “high polyreactivity”.

For “QVQLVESGGGLVQAVGRLRLSCAASGRTFYYNGMGWYRQAPGKERELVAAISSGGTTSYADSVKGRFTISRDNAKNTVYLQMNSLKPEDTAVYYCNVYDKAPAYDYWGQGTQVTVSS”, the “polyreactivity (PSR sort gate)” value was “low polyreactivity”.

For “QVQLVESGGGLVQAVGSHRLICAASGSIFPYYAMGWYRQAPGKERELVATITYRGGSTNYADSVKGRFTISRDNAKNTVYLQMNSLKPEDTAVYYCAAEYYSIRYGPHSIEVYGMDYWGQGTHVTVSS”, the “polyreactivity (PSR sort gate)” value was “low polyreactivity”.

As to “QVQLVESGGGLVQAVGSLRLSCAASGFTFQHYAMGWYRQAPGNERELVAVISFSGGRTYYADSVKGRFTISRDNAKNTVYLQMNSLKPEDTAVYYCAAVFWDDYGKYYYWGLGTQVTVSS”, the “polyreactivity (PSR sort gate)” value is listed as “high polyreactivity”.

As to “QVQLVESGGGLVQAVGSLRLSCAASGLTFYPNAMGWYRQAPGKERQFVDSISISGRTYYADSVKGRFTISRDNAKNTVYLQMNSLKPEDTAVYYCAARYVRSGLYRKYDYWGQGTQVTVSS”, the “polyreactivity (PSR sort gate)” value is listed as “high polyreactivity”.

With “QVQLVESGGGLVQAVGSLRLSCAASGLTFYSNAMGWYRQPHGKERELVATISQDGGRTYADSVKGRFTISRDNAKNTVYLQMNSLKPEDTAVYYCAADYSGNYDFGYWGQGTQVTVSS”, the “polyreactivity (PSR sort gate)” value is recorded as “low polyreactivity”.

On to “QVQLVESGGGLVQAVGSLRLSCAASGRIFGYYDMGWYRQAPGKERELVAAINYDGGSTYYADSVKGRFTISRDNAKNTVYLQMNSLKPDDTAVYYCNKDGRVYLDHDYWGQGTQVTVSS”, for which the “polyreactivity (PSR sort gate)” value was “low polyreactivity”.

Consider “QVQLVESGGGLVQAVGSLRLSCAASGRIFNYYAMGWYRQAPGKEREMVAGISGYGTSTYYADSVKGRFTISRDNAKNTVYLQMNSLKPEDTAVYYCAADVFRDDVWLDYWGHGTQVTVSS”, for which the “polyreactivity (PSR sort gate)” value is “low polyreactivity”.

Turning to “QVQLVESGGGLVQAVGSLRLSCAASGRIFRYNAMGWYRQAPVKERELVASITSAGSTNYADSVKGRFTISRDNAKNTVYLQMNSLKPEDTAVYYCAARAQSPPYGYWGQGTQVTVSS”, the “polyreactivity (PSR sort gate)” value is on record as “high polyreactivity”.

Take “QVQLVESGGGLVQAVGSLRLSCAASGRTFARNAMGWYRQAPGKERELVAVITSGTSTYYADSVKGRFTISRDYAKNTVYLQMNSLKPEDTAVYYCAARSPGRAGIYYSWGQGTQVTVSS”: the “polyreactivity (PSR sort gate)” value is on record as “high polyreactivity”.

On to “QVQLVESGGGLVQAVGSLRLSCAASGRTFNRYGMGWYRQAPAKEMELVAAIRWSGTTTYYADSVKGRFTISRDNAKNTVYLQMNSQKPEDTAVYYCAAGTNVGRYGYYYWGQGTQVTVSS”, for which the “polyreactivity (PSR sort gate)” value is recorded as “high polyreactivity”.
